Measured values as given in the supplement of paper PMC12042874.
± gives the uncertainty stated by the source.

Assay: amyloid nucleation score (Sup35N fusion, yeast selection) (log enrichment); library NNK2; higher = more nucleation; inactive = no reads after selection
Procedure, shortened: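 The nucleation score is the log enrichment of output over input reads, calculated with DiMSum and centred on the mode score of non-aggregating sequences. Sequences with under 100 input reads were excluded. Reads came from Illumina sequencing of plasmid inserts from psi-negative yeast expressing Sup35N fused to peptides of 20 random codons, induced 24 hours with 100 μM copper sulfate and grown 7 days at 30°C without adenine and uracil.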

Row | Substance | amyloid nucleation score
1 | VYALTGMDKYGGLALYLSWR | 0.307 ± 0.44
2 | STMFSVNFST | inactive
3 | ILATSRVILVFCAMCACRWG | 2.98 ± 0.062
4 | AGMPCKFIRARSSPYFRALC | 0.495 ± 0.62
5 | IGTLSRNERASRNTHWDILT | 0.757 ± 0.47
6 | LCDIIQAF | -0.626 ± 1.1
7 | YSVLFL | -0.722 ± 0.54
8 | NLDDYPG | 1.66 ± 0.25
9 | RILIINLSPNEYMIGLH | 4.3 ± 0.1
10 | TEGHVNSQIRWNLVY | -0.348 ± 0.36
11 | IDIEMIYERKPVGRIFSDT | -1.25 ± 0.42
12 | KKERPNMSWGDHY | -0.78 ± 1
13 | NCGKLHQF | 0.403 ± 0.5
14 | KSSEHRGCLICTIIAVDL | 6.977 ± 0.039
15 | MFSNQADFDTNLVSLYDKTW | -0.825 ± 0.4
16 | PHQKSAY | -0.284 ± 0.79
17 | WFDKFRMCEEFAYYFFLPQW | -0.856 ± 0.63
18 | LTDVYMVI | -0.395 ± 0.76
19 | VNVCWLKSATPNSCVDLVNI | 0.946 ± 0.6
20 | HRSCVDTDVSDGWKGVESEA | 0.599 ± 0.64
21 | QYSTFATNRVFSKAIMHLSG | -0.445 ± 0.36
22 | HGKCVFGLPVLLQWKLGDQT | 0.607 ± 0.57
23 | SCNQCYFFQEVKRSVLVIKT | 3.59 ± 0.066
24 | IFLSSDLTDGVYSSLYDPID | 0.042 ± 1.1
25 | LCIIWVVRFYALWWSEPMGW | 1.14 ± 0.18
26 | GRVISCVGLTAFNKAVGSCR | 0.626 ± 0.42

Row | Substance | amyloid nucleation score
27 | CRLADFAPFRHCFFSHDCSR | 3.57 ± 0.046
28 | RCTKA | 0.341 ± 0.21
29 | NFACVFHGVDFYRTDSSCRK | 5.17 ± 0.072
30 | VLVSLFLPLENYFG | -0.549 ± 1
31 | DKLVRWHLGMLIGGRGSCLF | 0.294 ± 0.8
32 | SYDPGITSSWMVRIRRVRMC | -0.001 ± 0.49
33 | LKTLIKDPMLYGQALSRVFC | -0.737 ± 1.1
34 | NVCRVDMAEKFGSFRLCN | -0.846 ± 0.34
35 | TGSWNGCVKWASRLKRAGGR | 0.643 ± 0.64
36 | WFSECCSMASIGHSDTMDGS | -0.567 ± 1.1
37 | FSSEGLRIRKIRQGISISLC | -1.21 ± 1.1
38 | TVYIYSLVSRNKEVMFFTD | inactive
39 | WDSDRSYVLSLFADVPLAKC | 0.035 ± 1
40 | LTTMFFIMCHEFNLLAVFNY | 1.27 ± 0.26
41 | PCGSCMSQNKSIG | 0.167 ± 0.31
42 | GFEGMSMADRKKGEVRAIWG | 0.755 ± 0.31
43 | CNIVNFMWAGENFR | 5.48 ± 0.086
44 | LVKTVDYAALPRICDVGRGQ | 3.96 ± 0.075
45 | FAIDMRYVGGQGCCILYIRR | 0.075 ± 0.44
46 | NKRSCNGCGSRAHQDSL | -0.176 ± 1.1
47 | SNFVTVSGTPPHIILMCKDW | 4.71 ± 0.055
48 | WLLVDGEH | 0.025 ± 0.45
49 | SMYVDVFLRFGSWLHSFT | -0.127 ± 0.74
50 | LALNLQNCTRGGFTILTVS | inactive
51 | GKLLRHFGLMYCLFLIAAYG | 0.108 ± 0.42
52 | VFAYYIDRARSSRVPCTVAN | 4.28 ± 0.12

Row | Substance | amyloid nucleation score
53 | SFRYLCIRNGTSYGMYTSPV | 0.478 ± 0.8
54 | SKVRLQSGYTKHERKNFHWL | -0.001 ± 0.34
55 | SYIGMNQNCFSEQLNNAQTG | 0.606 ± 0.18
56 | DIVNLSEDGLSSNELFIARM | -0.52 ± 1.1
57 | SRDVAAYNRRRRFAVLGWGE | 0.44 ± 0.38
58 | FCDALQISSYTSENYGIVWS | -0.685 ± 0.36
59 | TYKEYCGE | -0.693 ± 0.78
60 | NQDPRSRLLSNELYGCHFVL | -0.214 ± 0.28
61 | RCFGFRVVRFVV | 0.014 ± 0.2
62 | TKLEYNTE | 0.118 ± 0.77
63 | NCMPMEYNDGENAVMCGFNG | 0.11 ± 0.27
64 | SKQTITFRSVQEDSWRRFGH | 5.49 ± 0.076
65 | IYYDVFSVSCTFVKLGWIFL | 1.96 ± 0.077
66 | VFDVISI | -0.064 ± 0.76
67 | TPSDLVDINMDHAFCELCRR | 0.413 ± 0.45
68 | DVDSCW | 0.554 ± 0.43
69 | LSAKSTCTAYNRAGSARTEY | -0.072 ± 1.1
70 | LGYSLAACNQETGNDRYMAR | 0.121 ± 0.34
71 | YFYITTCSGMSTDVFMNLLT | -0.422 ± 1
72 | NLSILTICMFLPVDFGI | 6.525 ± 0.059
73 | MSKDTVMPWERIKEVLHCLG | 0.342 ± 0.3
74 | FYCSNSYYNVRIDRQNYCQM | 5.501 ± 0.052
75 | TRWCYSDFPMVKLFLLKFIT | 0.416 ± 0.8
76 | ITVFAGFLRCCYLCFLDNHS | inactive
77 | GNGLVMLKTVHLWVLRDVLG | 0.839 ± 0.24
78 | SEMDPNKAMRIGW | 0.174 ± 0.21

Row | Substance | amyloid nucleation score
79 | GDYWGAGWRRA | 0.184 ± 0.49
80 | RCWAAHYVDTWACNSLAVII | 1.19 ± 0.68
81 | FLFTQGRLGGGYIVEYLCQL | 3.3 ± 0.15
82 | LWYMMYLRPLWVRPKIDNEV | 1.11 ± 0.24
83 | FSHNTEFRVGCGYEFAVGKA | -0.262 ± 0.79
84 | STSWGSRSVDCC | -0.609 ± 0.25
85 | CASAVLCCPKTSR | -0.02 ± 0.34
86 | SCLIGLRLVLSLTAHDTETA | 3.97 ± 0.11
87 | LLMSCPLSLCSEGVTSLVEG | 1.29 ± 0.3
88 | FSRSVKRLIVDVLRNKVCI | 0.58 ± 0.54
89 | RPSNKT | 0.761 ± 0.56
90 | YSWKFFCRWNEQD | 1.04 ± 0.59
91 | TSGMNDITR | -0.093 ± 0.23
92 | PGSMPRRMSRCWSIGLDGEE | 1.3 ± 0.32
93 | HYSFYLVDYSFNISVGYFCT | 0.571 ± 0.39
94 | FYFIIWNSLRPILRLSVAPV | -0.392 ± 0.61
95 | RTSAPVLRYSVCLNAKYSLG | 0.683 ± 0.21
96 | LSACIALASGYVGISGW | inactive
97 | LLHGSLWAQSMSLCWLNVTG | 4.24 ± 0.088
98 | SKGSWIDVSYDLV | -0.132 ± 0.37
99 | GWGRLTY | 0.21 ± 0.74
100 | ASNAWDRLGSVPGFSRGRLR | -0.308 ± 0.48
101 | CFSNFVG | 0.746 ± 0.31
102 | LSHPVIGGETKFPDDRNSQF | 0.119 ± 0.19
103 | TLWHARTVKRDKWSSYGVGR | 1.83 ± 0.12
104 | STYLFNSSHPVSVISEAQFS | -0.408 ± 0.79

Row | Substance | amyloid nucleation score
105 | VFFGPTFCFVPYVNMRCLVP | 8.082 ± 0.059
106 | RTHPTCSVCVKLYPLGTPRR | 2.38 ± 0.13
107 | NTITIMHSDEYVMRVSYICQ | 1.87 ± 0.2
108 | FSAEIRGTQRMLQRLSLYKR | 1.61 ± 0.092
109 | LLFPM | 0.647 ± 0.8
110 | CNWGRTFCRRVSVPVRRSDL | -0.074 ± 1.1
111 | SSTVCCHALVCSVSNFGFTV | 9.783 ± 0.038
112 | LWHGYGRFRVLSVVF | 3.53 ± 0.045
113 | KGSEPLYGLCIIMV | 0.851 ± 0.8
114 | LMLNWCTLGLVHC | 0.004 ± 0.61
115 | MLRHSANMIKMLKHTTTND | 0.004 ± 0.45
116 | NYEGGCGVNGVMSVPAVRNP | 0.082 ± 1
117 | FLLSISNRVDMFIFVLHHFT | inactive
118 | QRCWRSGTFSGM | -0.107 ± 1
119 | RASMVDF | 0.108 ± 0.65
120 | FGLVHRIPRFVLWILSLGSG | -0.012 ± 1.1
121 | EVLTVYFARRFVESSGRGTG | 2.38 ± 0.13
122 | VGLVMHGIVLCLMLSHMSWR | 0.354 ± 0.41
123 | VQKRRGFILTSFR | -0.173 ± 0.39
124 | TVYEMGASMLVKILHWKVLN | -0.801 ± 0.38
125 | ELALGIHYPFNKLYDINKGC | -1.5 ± 0.35
126 | IREEGQFSLAVFSYMKVSPY | 2.95 ± 0.071
